Laboratory results from US20210269480A1 (published 2021).
*1 amine or outer side, *2 acyl side, *3 side chain or, on linkers, in order; H or OH if unused. Bridges are numbered along the chain shown (N, C = ends). Where no end group is shown, it is not given here. [ ]: non-standard residue; d: D form. 124TriAz = 3-(1,2,4-triazol-1-yl)-alanine, O=C([C@H](Cn1cncn1)N[*:1])[*:2]; TATA = O=C(CC[*:1])N1CN(C(=O)CC[*:2])CN(C(=O)CC[*:3])C1; HGln = homoglutamine, NC(=O)CCC[C@H](N[*:1])C(=O)[*:2]; Trp(5-F) = N[C@@H](Cc1c[nH]c2ccc(F)cc12)C(=O)O; Ala(4-thiazolyl) = N[C@@H](Cc1cscn1)C(=O)O; 1Nal = N[C@@H](Cc1cccc2ccccc12)C(=O)O; 2Nal = N[C@@H](Cc1ccc2ccccc2c1)C(=O)O; Dopa = N[C@@H](Cc1ccc(O)c(O)c1)C(=O)O; Gly(cPent) = N[C@H](C(=O)O)C1CCCC1; Ser(ΨH,HPro) = O=C(O)[C@@H]1COCN1; Ala(cPr) = N[C@@H](CC1CC1)C(=O)O; Hyp = O=C(O)[C@@H]1C[C@@H](O)CN1; NMeT = CN[C@H](C(=O)O)[C@@H](C)O; hArg = N=C(N)NCCCC[C@H](N)C(=O)O; 2Thi = N[C@@H](Cc1cccs1)C(=O)O; NMeC = CN[C@@H](CS)C(=O)O; hSer = N[C@@H](CCO)C(=O)O; Aib = CC(C)(N)C(=O)O; βAla = NCCC(=O)O; Sar = CNCC(=O)O

Target: T1, human Nectin-4 (human, UniProt Q96NY8 32-349)
T1 construct: a Gly32-Ser349 FLAG construct is described only under the SPR assay; also called PVRL4
T1 sequence (looked up): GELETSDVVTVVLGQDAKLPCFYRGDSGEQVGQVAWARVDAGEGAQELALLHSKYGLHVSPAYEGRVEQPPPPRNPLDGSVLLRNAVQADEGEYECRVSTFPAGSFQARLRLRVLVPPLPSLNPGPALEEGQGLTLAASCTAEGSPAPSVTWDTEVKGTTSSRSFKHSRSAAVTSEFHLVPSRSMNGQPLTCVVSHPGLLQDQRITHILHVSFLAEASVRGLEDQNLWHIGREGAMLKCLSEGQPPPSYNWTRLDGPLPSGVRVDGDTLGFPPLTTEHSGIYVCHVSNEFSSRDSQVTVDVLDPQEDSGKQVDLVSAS
Experiment: FP competition, tracer SEQ ID NO 217
Description: Peptides were diluted to an appropriate concentration in assay buffer as described in the direct binding assay with a maximum of 5% DMSO, then serially diluted 1 in 2. […] Measurements were conducted as for the direct binding assay, however the gain was determined prior to the first measurement. Data analysis was in Systat Sigmaplot version 12.0 where the mP values were fit to a user defined cubic equation to generate a Ki value: […]

Ac-CPF[dD]CM[hArg][2Thi]WSTPIWC (linker 1-5-15 via TATA) [BCY7877]
Ki: 9.5 nM

{Ac-βAla}-[Sar][Sar][Sar][Sar][Sar]CP[1Nal][dD]CM[hArg]DWSTP[Hyp]WC (linker 6-10-20 via TATA) [BCY8122]
Ki: 3 nM

{Ac-βAla}-[Sar][Sar][Sar][Sar][Sar]CP[1Nal][dD]CM[hArg]NWSTP[Hyp]WC (linker 6-10-20 via TATA) [BCY8120]
Ki: 3 nM

Ac-CP[1Nal][dD]CM[hArg]NWSTP[Hyp]WC (linker 1-5-15 via TATA) [BCY8124]
Ki: 3.5 nM

{Ac-βAla}-[Sar][Sar][Sar][Sar][Sar]CP[1Nal][dD]CM[hArg]HWSTP[Hyp]WC (linker 6-10-20 via TATA) [BCY8121]
Ki: 4 nM

Ac-CPF[dD]CM[hArg]NWSTP[Ala(cPr)]WC (linker 1-5-15 via TATA) [BCY7912]
Ki: 9 nM

Ac-CPF[dD]CM[hArg]NW[hSer]TPIWC (linker 1-5-15 via TATA) [BCY7908]
Ki: 20 nM

Ac-QKWCAPLSDY[1Nal]CNRIC (linker 4-12-16 via TATA) [BCY7998]
Ki: 135 nM

Ac-CPF[dD]CM[hArg]NWSTPI[Trp(5-F)]C (linker 1-5-15 via TATA) [BCY7892]
Ki: 9.5 nM

Ac-CPF[dD]C[Gly(cPent)][hArg]NWSTPIWC (linker 1-5-15 via TATA) [BCY7915]
Ki: 20 nM

Ac-CPF[dD]CM[hArg][124TriAz]WSTPIWC (linker 1-5-15 via TATA) [BCY7881]
Ki: 14.4 nM

DDACPFGCMETWSWPIWCA (linker 4-8-18 via TATA) [BCY3386]
Ki: 80.2 nM

Ac-CPF[dQ]CM[hArg]NWSTPIWC (linker 1-5-15 via TATA) [BCY7904]
Ki: 8 nM

Ac-CPF[dA]CMKNWSWPIWC (linker 1-5-15 via TATA) [BCY7538]
Ki: 8.5 nM

Ac-CPF[dD]CMKNWSTPIWC (linker 1-5-15 via TATA) [BCY7819]
Ki: 12 nM

Ac-CPF[dD]C[hArg]NWS[NMeT]PIWC (linker 1-5-14 via TATA) [BCY7979]
Ki: 191 nM

Ac-CPF[dD]CM[hArg]NWS[Dopa]PIWC (linker 1-5-15 via TATA) [BCY7887]
Ki: 21.4 nM

Ac-CPF[dD]CM[hArg]NWS[124TriAz]PIWC (linker 1-5-15 via TATA) [BCY7883]
Ki: 189 nM

SDNCPFGCMKDWSWPIWCA (linker 4-8-18 via TATA) [BCY3387]
Ki: 234 nM

Ac-CP[2Nal][dD]CM[hArg]NWSTPIWC (linker 1-5-15 via TATA) [BCY8031]
Ki: 3.6 nM

Ac-DDDCPF[dD]CM[hArg]NWSTPIWC (linker 4-8-18 via TATA) [BCY8028]
Ki: 61.9 nM

ACAPLDDYWCGRICA (linker 2-10-14 via TATA) [BCY432]
Ki: 1100 nM

Ac-CPF[dE]CM[hArg]NWSTPIWC (linker 1-5-15 via TATA) [BCY7903]
Ki: 41 nM

Ac-CPF[dS]CM[hArg]NWSTPIWC (linker 1-5-15 via TATA) [BCY7907]
Ki: 10 nM

Ac-CPF[dD]CM[hArg][Ala(4-thiazolyl)]WSTPIWC (linker 1-5-15 via TATA) [BCY7879]
Ki: 12.5 nM

Ac-CP[1Nal][dD]CM[hArg]NWSTPIWC (linker 1-5-15 via TATA) [BCY8030]
Ki: 2.5 nM

Ac-C[Ser(ΨH,HPro)]F[dD]CM[hArg]NWSTPIWC (linker 1-5-15 via TATA) [BCY7876]
Ki: 59.2 nM

Ac-CP[Dopa][dD]CM[hArg]NWSTPIWC (linker 1-5-15 via TATA) [BCY7886]
Ki: 15 nM

{Ac-βAla}-[Sar][Sar][Sar][Sar][Sar]CP[1Nal][dD]CM[hArg]DWSTPIWC (linker 6-10-20 via TATA) [BCY8123]
Ki: 4.5 nM

Ac-CP[1Nal][dD]CL[hArg]DWSTPIWC (linker 1-5-15 via TATA) [BCY8211]
Ki: 4.5 nM

Ac-CP[1Nal][dR]CM[hArg]DWSTPIWC (linker 1-5-15 via TATA) [BCY8215]
Ki: 3 nM

Ac-CP[1Nal][dD]CM[hArg]DWSTPIWC (linker 1-5-15 via TATA) [BCY8127]
Ki: 2.4 nM

Ac-CPF[dD]CM[hArg]NWSTP[Hyp]WC (linker 1-5-15 via TATA) [BCY8037]
Ki: 5.6 nM

Ac-CPF[dK]CM[hArg]NWSTPIWC (linker 1-5-15 via TATA) [BCY7820]
Ki: 10 nM

Ac-CPF[dD]C[HGln][hArg]NWSTPIWC (linker 1-5-15 via TATA) [BCY7914]
Ki: 62 nM

Ac-QK[1Nal]CAPLSDYWCNRIC (linker 4-12-16 via TATA) [BCY7996]
Ki: 21 nM

Ac-CAPLSDYWCNRIC (linker 1-9-13 via TATA) [BCY8044]
Ki: 170 nM

Ac-CPF[dD]CM[hArg]NWST[Ser(ΨH,HPro)]IWC (linker 1-5-15 via TATA) [BCY7884]
Ki: 223 nM

Ac-CPF[dD][NMeC]M[hArg]NWSTPIWC (linker 1-5-15 via TATA) [BCY7973]
Ki: 4 nM

Ac-CPF[dF]CM[hArg]NWSTPIWC (linker 1-5-15 via TATA) [BCY7902]
Ki: 4 nM

DDWCAPLDDYWCGRICA (linker 4-12-16 via TATA, also called 80-10-11-T01) [BCY433]
Ki: 69.4 nM

Ac-CPF[dL]CM[hArg]NWSTPIWC (linker 1-5-15 via TATA) [BCY7906]
Ki: 6 nM

Ac-C[Aib]F[dD]CM[hArg]NWSTPIWC (linker 1-5-15 via TATA) [BCY8041]
Ki: 39.1 nM

Ac-CPF[dK](MeO‑dPEG12)CM[hArg]NWSTPIWC (linker 1-5-15 via TATA) [BCY8089]
Ki: 8 nM

Ac-CPF[dD]CM[hArg]N[Trp(5-F)]STPIWC (linker 1-5-15 via TATA) [BCY7891]
Ki: 5 nM

Ac-QK[2Nal]CAPLSDYWCNRIC (linker 4-12-16 via TATA) [BCY7997]
Ki: 22 nM

DTACPFGCMRGWSWPIWCA (linker 4-8-18 via TATA) [BCY3388]
Ki: 129 nM

Ac-QKWCAPLSDYWC[dD]RIC (linker 4-12-16 via TATA) [BCY8000]
Ki: 60 nM
